In US20240410900A1 (Hoffmann-La Roche, published 2024):
Substitutions are numbered along the chain they refer to. Each block holds one binder with its values, some of them ahead of it.

Legend:
[1] = biological target: T1, anti-VEGF/ANG2 antibody (IgG1 subclass with mutations P329G/L234A/L235A/I253A/H310A/H435A); test: ELISA assay C, tracer FcγRI-Dig, target 2 ng/mL
T1 construct: Format of the bispecific antibody not described; Positions are EU numbers, not positions on the UniProt entry; also called sample 1; antibody 1

[2] = biological target: T2, anti-VEGF/ANG2 antibody (IgG1 subclass with mutations P329G/L234A/L235A); test: ELISA assay C, tracer FcγRI-Dig, target 2 ng/mL
T2 construct: Positions are EU numbers; also called sample 2; antibody 2

[3] = biological target: T3, anti-IGF-1R antibody (IgG1 subclass with mutations I253A/H310A/H435A); test: ELISA assay C, tracer FcγRI-Dig, target 2 ng/mL
T3 construct: Positions are EU numbers; also called sample 3; antibody 3

[4] = biological target: T4, anti-P-Selectin antibody (IgG4 subclass with mutations S228P/L235E); test: ELISA assay C, tracer FcγRI-Dig, target 2 ng/mL
T4 construct: Positions are EU numbers; also called sample 4; antibody 4

[5] = biological target: T5, anti-VEGF/ANG2 antibody (wild-type IgG1 subclass) (UniProt P01857-1 1-330 = IgG part); test: ELISA assay C, tracer FcγRI-Dig, target 2 ng/mL
T5 construct: also called sample 5; antibody 5

[6] = biological target: T1, anti-VEGF/ANG2 antibody (IgG1 subclass …); test: ELISA assay C, tracer FcγRI-Dig, target 50 ng/mL
[7] = biological target: T2, anti-VEGF/ANG2 antibody (IgG1 subclass …); test: ELISA assay C, tracer FcγRI-Dig, target 50 ng/mL
[8] = biological target: T3, anti-IGF-1R antibody (IgG1 subclass …); test: ELISA assay C, tracer FcγRI-Dig, target 50 ng/mL
[9] = biological target: T4, anti-P-Selectin antibody (IgG4 subclass …); test: ELISA assay C, tracer FcγRI-Dig, target 50 ng/mL
[10] = biological target: T5, anti-VEGF/ANG2 antibody (wild-type IgG1 …); test: ELISA assay C, tracer FcγRI-Dig, target 50 ng/mL
[11] = biological target: T1, anti-VEGF/ANG2 antibody (IgG1 subclass …); test: bridging ELISA, target-Bi capture and target-Dig tracer, binder 125 ng/mL, against the blank
Description: A dilution series of the monomeric full-length anti-PG Fc-region antibody clone 1.3.17 was prepared as standards for checking the possibility of generating a standard curve.
Biotinylated anti-VEGF/ANG2 antibody with the mutations P329G, L234A, L235A, I253A, H310A, and H435A and digoxygenylated anti-VEGF/ANG2 antibody with the mutations P329G, L234A, L235A, 1253A, H310A, and H435A were pre-incubated with the standards overnight at room temperature. After pre-incubation, the samples were transferred to a streptavidin-coated multi-well plate and incubated for 1 hour at room temperature. Excess of unbound antibody was removed by washing. After a washing step the bound digoxygenylated complexes comprising biotinylated and digoxygenylated anti-VEGF/ANG2 antibody with the mutations P329G, L234A, L235A, 1253A, H310A, and H435A as well as the monomeric, full-length anti-PG Fc-region antibody M1.3.17 (SEQ ID NO: 03 and 04) were detected with an horseradish peroxidase (HRP) labelled anti-digoxygenin-antibody. After a washing step and upon incubation with the respective substrate the HRP present in the formed complex catalyzes the conversion of ABTS into a colored product. The signal was measured by Elisa reader at 405 nm wavelength (reference wavelength: 490 nm). Absorbance values of each serum sample were determined in triplicates.

[12] = biological target: T6, drug antibody (capture and tracer of the bridging immunoassay of FIGS. 2, 7 and 8; not named); test: bridging immunoassay, drug antibody as capture and tracer, binder at 1000 ng/mL
T6 construct: also called the same but differently derivatized drug antibodies

[13] = biological target: T6, drug antibody (capture and tracer of …); test: bridging immunoassay, drug antibody as capture and tracer, binder at 2,500 ng/ml

signal [OD405 nm] [1]: 1.17 OD405 nm
signal [OD405 nm] [2]: 1.22 OD405 nm
signal [OD405 nm] [3]: 1.26 OD405 nm
signal [OD405 nm] [4]: 1.19 OD405 nm
signal [OD405 nm] [5]: 1.19 OD405 nm
signal [OD405 nm] [6]: 1.17 OD405 nm
signal [OD405 nm] [7]: 1.21 OD405 nm
signal [OD405 nm] [8]: 1.21 OD405 nm
signal [OD405 nm] [9]: 1.15 OD405 nm
signal [OD405 nm] [10]: 1.16 OD405 nm
signal to noise ratio [11]: 1.85
B1: anti-PG variant Fc-region antibody M1.3.17 (antibody, V domains shown)
VH: EVKLLESGGGLVQPGGSLKLSCAASGIDFRRYWMNWVRQAPGKGLEWIGEIDPDSSTINYTPSLKDKFIISRDNAKNTMYLQMRKVRSEDTALYYCARPYDYGAWFAYWGQGTLVTVSA
VL: QAVVTQESALTTSPGETVTLTCRSTTGAVTTSNYANWVQEKPDHLFTGLIGGTNKRAPGVPARFSGSLIGDKAALTITGAQTEDEAIYFCALWYSDHWVFGGGTKLTVL
notes: Monomeric, bivalent full-length antibody with murine variable domains; Biotinylated when used as capture antibody; also called anti-PG antibody clone 1.3.17; M1.3.17-Bi

signal [OD405 nm] [1]: 0.085 OD405 nm
signal [OD405 nm] [2]: 0.093 OD405 nm
signal [OD405 nm] [3]: 0.074 OD405 nm
signal [OD405 nm] [4]: 0.056 OD405 nm
signal [OD405 nm] [5]: 0.058 OD405 nm
signal [OD405 nm] [6]: 0.084 OD405 nm
signal [OD405 nm] [7]: 0.094 OD405 nm
signal [OD405 nm] [8]: 0.095 OD405 nm
signal [OD405 nm] [9]: 0.066 OD405 nm
signal [OD405 nm] [10]: 0.066 OD405 nm
signal-to-noise ratio (S/N) [12]: 3.8
signal-to-noise ratio [13]: > 2
B2: anti-PG variant Fc-region antibody M1.7.24 (monomeric, bivalent) (antibody, V domains shown)
VH: B1 VH with I27F, R30S, D52T, M79L, R84I, A97V, Y108S
VL: B1 VL with T25S, D96N
notes: Full-length Y-shaped antibody with murine variable domains; Biotinylated when used as capture antibody; also called anti-PG antibody clone 1.7.24; M1.7.24-Bi

signal [OD405 nm] [1]: 0.077 OD405 nm
signal [OD405 nm] [2]: 0.072 OD405 nm
signal [OD405 nm] [3]: 0.082 OD405 nm
signal [OD405 nm] [4]: 0.067 OD405 nm
signal [OD405 nm] [5]: 0.077 OD405 nm
signal [OD405 nm] [6]: 0.077 OD405 nm
signal [OD405 nm] [7]: 0.057 OD405 nm
signal [OD405 nm] [8]: 1.06 OD405 nm
signal [OD405 nm] [9]: 0.054 OD405 nm
signal [OD405 nm] [10]: 0.067 OD405 nm
B3: anti-AAA variant Fc-region antibody M1.6.22 (antibody, V domains shown)
VH: EVQLVESGGDLVKPGGSLKLSCAASGFTFSSYGMSWVRQTPDKRLEWVATISSGGSYIYYPDSVKGRFTISRDNAKNTLYLQMSSLKSEDTAMYYCARLGMITTGYAMDYWGQGTSVTVSS
VL: DVLMTQTPLSLPVSLGDQASISCRSSQTIVHSTGHTYLEWFLQKPGQSPKLLIYKVSNRFSGVPDRFSGSGSGTDFTLKISRVEAEDLGVYYCFQGSHVPYTFGGGTKLEIK
notes: Murine variable domains; also called M1.6.22-Bi
